Laboratory results taken from paper PMC10042821, “Cryo-EM structure of human eIF5A-DHS complex reveals the molecular basis of hypusination-associated neurodegenerative disorders” (Nature Communications, 2023).
Substitutions are numbered along the chain they refer to.

Tests used:
Experiment in all cases: MST; Monolith NT.115; 8.32 nM His-tagged DHS labelled with RED-tris-NTA, eIF5A titrated 0.00175-57.5 uM; 50 mM Tris, 200 mM NaCl, 5 mM beta-ME pH 8; free buffer
Settings in all cases: both partners purified
[1] = molecular target: T1, deoxyhypusine synthase W327A, His-tagged (human, UniProt P49366 1-369, W327A)
T1 construct: deoxyhypusine synthase (DHS), Homo sapiens, UniProt P49366, residues 1-369; source: E. coli, purified; His-tagged protein labelled with RED-tris-NTA for MST; not shown: His6, N-terminal, kept
T1 sequence (looked up): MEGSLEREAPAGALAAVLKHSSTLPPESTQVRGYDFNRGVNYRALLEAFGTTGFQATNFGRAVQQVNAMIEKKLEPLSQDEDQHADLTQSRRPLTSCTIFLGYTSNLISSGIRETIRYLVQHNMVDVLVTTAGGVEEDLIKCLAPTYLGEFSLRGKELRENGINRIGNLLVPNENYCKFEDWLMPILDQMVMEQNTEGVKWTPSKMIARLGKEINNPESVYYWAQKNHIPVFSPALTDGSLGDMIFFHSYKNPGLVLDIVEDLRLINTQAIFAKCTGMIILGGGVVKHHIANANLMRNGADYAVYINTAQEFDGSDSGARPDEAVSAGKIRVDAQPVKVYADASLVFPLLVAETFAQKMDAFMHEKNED

[2] = molecular target: T2, deoxyhypusine synthase N173S, patient-derived variant, His-tagged (human, UniProt P49366 1-369, N173S)
T2 construct: deoxyhypusine synthase (DHS), Homo sapiens, UniProt P49366, residues 1-369, pathological variant N173S; also called DHS^N173S; source: E. coli, purified from the soluble fraction; His-tagged protein labelled with RED-tris-NTA for MST; not shown: His6, N-terminal, kept
T2 sequence (looked up): T1 sequence (looked up) with N173S, A327W

[3] = molecular target: T3, deoxyhypusine synthase K329A, His-tagged (human, UniProt P49366 1-369, K329A)
T3 construct: deoxyhypusine synthase (DHS), Homo sapiens, UniProt P49366, residues 1-369; also called DHS^K329A; source: E. coli, purified; His-tagged protein labelled with RED-tris-NTA for MST; not shown: His6, N-terminal, kept
T3 sequence (looked up): T1 sequence (looked up) with A327W, K329A

B1: eukaryotic translation factor 5A-1 (eIF5A-1), residues 15-151 (domain or fragment)
chain: not shown
notes: eIF5A1 (eukaryotic translation factor 5A-1), human, residues 15-151, from pET28-MHL (Addgene); The general purification removes the His tag with TEV; A His-tagged eIF5A1 was used only in the hypusination assay; source: E. coli, purified (HisTrap, TEV cleavage, reverse HisTrap, SEC); not shown: His tag, N-terminal, cleaved
B1 was tested, and the Kd [1] was 602 ± 284 nM, the Kd [2] was 115 ± 22.3 nM and the Kd [3] was 129 ± 37.9 nM.
